Assay [1] concerns the target TirM-TarP FL (full-length C. caviae GPIC TarP fused to TirM) (Chlamydia caviae strain GPIC).
Assay [2] concerns the target TirM-ΔVBS1 (TarP VBD deleted for VBS1, Thr714-Arg832, fused to TirM) (Chlamydia caviae strain GPIC).

With vinculin (natural protein), in assay [1], the frequency of vinculin recruitment to Δtir EPEC-clustered TirM fusion at the plasma membrane of Cos7 cells (immunofluorescence), TarP-FL relative to TirM-TarP1-714 was found to be 3 fold. The frequency of vinculin recruitment to Δtir EPEC-clustered TirM fusion at the plasma membrane of Cos7 cells (immunofluorescence), decrease relative to WT VBD in assay [2] turned out to be 1.6 fold.

The record behind these values is PMC4663276.
